{
  "source": "patent US8916693B2",
  "about": "“Monoconjugated chitosans as delivery agents for small interfering nucleic acids” (Nektar Therapeutics, priority 2009, dated 2014)",
  "assay": "PBS buffer hydrolysis of releasable monoPEGylated chitosan (HPLC, disappearance of starting material)",
  "assay_type": "physicochemical",
  "settings": "25 mM PBS, pH 7.3; 2 mg in 1 mL",
  "method": "PBS buffer hydrolysis of releasable monoPEGylated (20 KDa) chitosan (10 KDa): To a solution of 25 mM PBS, pH 7.3, (1 mL) was added the monoPEGylated (20 KDa) chitosan (10 KDa) (2 mg). The solution was filtered through a 0.2 μm filter and analyzed for the disappearance of the PEGylated chitosan starting material on an HPLC system with a flow rate of 0.5 mL/min, gradient (A: 0.1M TEAA, B: 80% ACN and 20% 0.1M TEAA) 15% B 0-4 min, 50% B 8 min, and 58.2% B. The column used was a Zorbax 300SB-C3 3.0×150 mm, […], column.",
  "data": [
    {"substance": "Releasable monoPEGylated (20 KDa) Chitosan (10 KDa)", "values": [
      {"measurement": "calculated half-life (hydrolysis, disappearance of the PEGylated chitosan)", "result": 7.04, "unit": "h"}
    ]}
  ]
}
